Source: article PMC7321340, “Sorbitol as a Polar Pharmacological Modifier to Enhance the Hydrophilicity of ^99mTc-Tricarbonyl-Based Radiopharmaceuticals” (Molecules, 2020)
Where two headings read alike, the source gives them in different places.

Legend:
physchem = type: physicochemical; settings: pH 7.4
Experimental: For logD analysis, the octanol/PBS partition coefficients of the ^99mTc-tricarbonyl labeled BBN conjugates were determined at pH 7.4 utilizing the “shake-flask method” [25, 26]. The logD value for the reference compound [^99mTc][Tc(CO)3(BBN-13)] was −0.54 ± 0.04 while for the glycated compound [^99mTc][Tc(CO)3(12)] it was −1.26 ± 0.16 (Table 2). As expected, these measurements confirmed the increased hydrophilicity of the glycated ^99mTc-labeled BBN conjugate due to the introduction of the sorbitol moiety.
The lipophilicities (LogD) of [^99mTc][Tc(CO)3(L)] (L = 12, 13) were determined by their partition coefficient between n-octanol and PBS (pH 7.4) utilizing the “shake-flask method” [25, 26]. PBS and n-octanol were shaken overnight to saturate each phase. After separation of the layers by gravity, equal volumes (500 µL) of each layer were taken and transferred into an Eppendorf tube and 5 µL (~45 kBq) of the radiolabeled peptide solution were added to the PBS/n-octanol mixture. […] Aliquots of 300 µL were removed from the octanol and PBS phases and the radioactivity was measured in the γ-counter (n = 3 in triplicates). The lipophilicity was calculated as the log value of the average ratio between the radioactivity in the organic fraction (octanol) and the PBS fraction from the samples.

[1] = Biodistribution in nude mice bearing PC-3 tumor xenografts; settings: female, athymic nude (Fox-1^nu), mouse, in vivo, iv, 10 pmol, total radioactivity
Experimental: Biodistribution studies were performed in nude mice bearing PC-3 tumor xenografts at 1 h post-injection (p.i.) of the radiotracers (n = 6; Table 3, Figure 4).
All animals were treated according to the European Union rules on animal care. Animal experiments were approved by the Austrian Ministry of Sciences (BMBWF-66.009/0122-V/3b/2019). Approximately 5 × 10^6 PC-3 cells in 100 µL serum-free medium were subcutaneously injected into flanks of 8-week-old, female, athymic mice (Fox-1^nu, Charles River Laboratories). Xenografts were allowed to grow for 16 days (approx. size: 250 mm^3) and mice were intravenously injected via the tail vein with 0.1 µM radiolabeled peptide (10 pmol, ~42 kBq, 100 µL physiological saline) alone (baseline experiments) or co-injected with 2000-fold excess BBN(1–14) (20 nmol; blocking experiments). One hour p.i. of the radiotracers, mice were sacrificed and organs, tumor and blood were removed. Radioactivity in organs and tissues was quantified using a γ-counter (2480 Wizard^2, PerkinElmer). Organs and tissues were wet-weighted and percentage of injected dose per gram was calculated (% ID/g). Statistical analysis (2-way ANOVA) was performed by GraphPad Prism.

[2] = target: T1, Gastrin-releasing peptide receptor (GRPR) on PC-3 cells (Homo sapiens, UniProt P30550); experiment: Receptor saturation assay; type: binding; settings: 4 °C, 2 h, nonlinear regression, mean ± SEM, n = 2–3 in triplicate
T1 construct: using GRPR expressing PC-3 cells; host or cells: PC-3 human prostate adenocarcinoma cells (intact, in 6-well plates, 4 °C)
T1 sequence (P30550 whole entry): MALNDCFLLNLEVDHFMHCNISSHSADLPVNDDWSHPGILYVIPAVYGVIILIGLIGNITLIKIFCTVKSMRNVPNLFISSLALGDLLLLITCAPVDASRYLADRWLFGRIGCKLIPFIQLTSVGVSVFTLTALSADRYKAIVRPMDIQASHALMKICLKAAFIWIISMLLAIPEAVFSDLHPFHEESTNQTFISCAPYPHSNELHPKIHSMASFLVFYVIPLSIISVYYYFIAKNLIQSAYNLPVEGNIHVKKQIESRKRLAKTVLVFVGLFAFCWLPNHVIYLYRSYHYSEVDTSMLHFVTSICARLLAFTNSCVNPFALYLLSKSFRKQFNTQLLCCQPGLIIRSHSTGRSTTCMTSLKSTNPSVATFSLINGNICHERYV
Experimental: The receptor affinity (Kd) and maximum receptor occupancy (Bmax) were determined by receptor saturation assays using increasing amounts of the radiolabeled peptides (Figure 3). […] Differences in specific molar activities (MBq/mol) could account for this observation and cannot be entirely excluded even though both ^99mTc-radiopeptides were prepared under identical conditions. Because this study aims at the investigation of differences in the pharmacokinetics of the radiopeptides (e.g., rate and route of excretion) rather than in tumor uptake, we continued with the evaluation of both compounds in vivo.
Cell culture reagents were purchased from Thermo Fisher Scientific (Vienna, Austria) or Sigma-Aldrich (Vienna, Austria). Human prostate adenocarcinoma cells (PC-3) were purchased from ATCC and cultivated in RPMI-1640 medium supplemented with 10% heat-inactivated fetal bovine serum (FBS), 2 mM L-glutamine, 100 units/mL penicillin and 100 μg/mL streptomycin under humidified atmosphere (37 °C, 5% CO2) until minimum 80% at confluence. […]
Receptor binding assays were performed as previously published. […] Non-specific receptor binding was determined using an excess of natural bombesin (2.5 μM/well for concentrations of the radiopeptide <10 nM, and 10 μM/well for higher concentrations). […] The obtained fractions were measured in a γ-counter.

[3] = system: GRPR expressing PC-3 cells; experiment: Cell binding and internalization studies; type: cell-based, human
Experimental: Receptor binding and cell internalization properties of the ^99mTc(CO)3-labeled BBN derivatives were investigated with GRPR expressing PC-3 cells (n = 2–3 in triplicate). Despite the slightly slower uptake kinetics of [^99mTc][Tc(CO)3(12)], both radiolabeled compounds [^99mTc][Tc(CO)3(L)] […] The membrane bound fraction was less than 5% AD/10^6 cells for both compounds. The receptor-specific cell uptake was verified by incubating the cells with the radiopeptides in the presence of 1000-fold excess of natural bombesin as blocking agent.
Cell culture reagents were purchased from Thermo Fisher Scientific (Vienna, Austria) or Sigma-Aldrich (Vienna, Austria). […]
Internalization studies were performed as previously published. […] Non-specific receptor binding was determined by incubating the cells with the radiotracers and 1000-fold excess of natural bombesin (250 pmol; 100 μL per well) as the receptor blocking agent. […] The receptor-bound radioactivity was obtained by incubating the cells twice for 5 min with an ice-cold acidic glycine solution (100 mM NaCl, 50 mM glycine, pH 2.8; 1 mL) on ice followed by removal of the supernatant. […] All fractions were measured in a γ-counter and calculated as percentage of the applied dose (n = 2–3 in triplicate).

CCCC[C@H](NC(=O)[C@H](CC(C)C)NC(=O)[C@H](Cc1c[nH]cn1)NC(=O)CNC(=O)[C@@H](NC(=O)[C@H](C)NC(=O)[C@H](Cc1c[nH]c2ccccc12)NC(=O)[C@H](CCC(N)=O)NC(=O)CCNC(=O)CCNC(=O)CCNC(=O)Cn1cc(CN[C@@H](CCCCNC(=O)CCCOC[C@H](O)[C@@H](O)[C@H](O)[C@H](O)CO)C(=O)O)nn1)C(C)C)C(N)=O [[^99mTc][Tc(CO)3(12)], metal not drawn]
logD (physchem): -1.26 ± 0.16 | tissue uptake at 1 h ([1]; 1 h p.i., i.v. 10 pmol, PC-3 xenograft, GRPR-positive, mean ± SD, n = 5–6, read-out: Tumor uptake): 2.72 ± 0.88 %ID/g | tissue uptake at 1 h ([1]; 1 h p.i., i.v. 10 pmol, mean ± SD, n = 5–6, read-out: Blood uptake): 1.22 ± 0.4 %ID/g | tissue uptake at 1 h ([1]; 1 h p.i., i.v. 10 pmol, mean ± SD, n = 5–6, read-out: Bone uptake): 0.44 ± 0.28 %ID/g | tissue uptake at 1 h ([1]; 1 h p.i., i.v. 10 pmol, mean ± SD, n = 5–6, read-out: Brain uptake): 0.09 ± 0.07 %ID/g | tissue uptake at 1 h ([1]; 1 h p.i., i.v. 10 pmol, mean ± SD, n = 5–6, read-out: Heart uptake): 0.5 ± 0.23 %ID/g | tissue uptake at 1 h ([1]; 1 h p.i., i.v. 10 pmol, mean ± SD, n = 5–6, read-out: Kidney uptake): 4.32 ± 0.97 %ID/g | tissue uptake at 1 h ([1]; 1 h p.i., i.v. 10 pmol, mean ± SD, n = 5–6, read-out: Liver uptake): 2.75 ± 0.74 %ID/g | tissue uptake at 1 h ([1]; 1 h p.i., i.v. 10 pmol, mean ± SD, n = 5–6, read-out: Lung uptake): 1.38 ± 0.83 %ID/g | tissue uptake at 1 h ([1]; 1 h p.i., i.v. 10 pmol, mean ± SD, n = 5–6, read-out: Muscle uptake): 0.35 ± 0.24 %ID/g | tissue uptake at 1 h ([1]; 1 h p.i., i.v. 10 pmol, mean ± SD, n = 5–6, read-out: Spleen uptake): 1.16 ± 0.17 %ID/g | tissue uptake at 1 h ([1]; Adrenal uptake): 5.34 ± 1.85 %ID/g | tissue uptake at 1 h ([1]; Colon uptake): 5.85 ± 1.29 %ID/g | tissue uptake at 1 h ([1]; Intestine uptake): 3.71 ± 1.48 %ID/g | tissue uptake at 1 h ([1]; Pancreas uptake): 17.1 ± 3.25 %ID/g | tissue uptake at 1 h ([1]; Stomach uptake): 3.03 ± 0.88 %ID/g | increase of hydrophilicity (logD) vs non-glycated reference: 0.7 log units | Kd ([2]; 1–100 nM radiopeptide): 21.3 ± 4.6 nM | Bmax ([2]; maximum receptor occupancy): 0.91 ± 0.06 nM | cellular binding and uptake in the presence of blocking agent ([3]; 1000-fold excess of natural bombesin): < 0.5 % AD/10^6 cells | membrane bound fraction ([3]; acidic glycine wash fraction, n = 2–3 in triplicate): less than 5 % AD/10^6 cells
